The labels stand for the following.
B1: FVM04 (antibody, V domains shown)
VH: EVQLVQSGGGLVQPGGSMRLSCEASGLSLSDYFMHWVRQAQGKGLEWIGLIQTKAFTYKTEYPAAVKGRFTISRDDSKNTLYLQMSSLKPEDTALYYCIAVTPDFYYWGQGVLVTVSS
VL: DVVMTQSPSFLSASVGDRVTITCRASQDITINLNWFQHKPGKAPKRLIYVASRLERGVPSRFSGSGSGTEFTLTISSLQPEDFATYYCQQYNNYPLTFGPGTKLDIKRTV
B2: FVM09 (antibody, V domains shown)
VH: EVQLVQSGAEVKRPGESLTISCKTSGYSFTDSWVAWVRQMPGKGLEWLGSIYPGDSETKYNPSFQGHVTISADKSVTTTYLKWSSLKASDTATYYCVKGSETWGQGVLVTVSS
VL: QLVLTQPASLSASPGASASLTCTFSGGINVAGYNILWYQQKAGSPPRYLLRYKSDSTKDQGSGVPSRFSGSKDASANTGILRISGLQSEDEADYYCAIGHSSGWIFGGGTRLTVL
B3: FVM17 (antibody, V domains shown)
VH: B2 VH with V34I, A35S, L48M, E57D, T58A, K59R, V76I, T77S
VL: B2 VL with L2A, L4V, A16T, A42P, Y48F, T57D, K58N, D59V, R67H
B4: FVM20 (antibody, V domains shown)
VH: B2 VH with Q6E, D31G, V34I, A35S
VL: B2 VL with Q1N, L2F, V3M, P7S, N34H, L36F, K41N, A42P, T57E

Usually EC50 stands for the concentration that produces a half-maximal response.

Where a chain is given by its changes, count along the chain named.

The target of one test is SUDV GPddmuc (Sudan virus (SUDV)), Q66814. Briefly: ELISA. The following applies: remark: other sources report otherwise. (In general: ELISA stands for enzyme-linked immunosorbent assay.)
B1 displayed an EC50 of 164 pM.

In turn, B2 showed a concentration for a half-maximal effect (EC50) of 7730 pM.

B3 yielded a 50% effective concentration (EC50) of 113 pM.

B4 gave a 50% effective concentration (EC50) of 119 pM.

The target of the next test is EBOV GPddmuc (Ebola virus (EBOV)), Q05320. In words: ELISA. The following applies: remark: other sources report otherwise.
B1 had an EC50 of 149 pM.

In turn, B2 came in with a concentration for a half-maximal effect (EC50) of 7070 pM.

As to B3, the EC50 was 96 pM.

For the molecule B4, the EC50 was determined as 81 pM.

The values above are taken from patent US20170334973A1.
